Holding throughout (type): in vivo, C57BL6/J mice
Data set [1] in a line: Oligonucleotide content in liver and kidney by ELISA (Example 4). The following applies: for Oligonucleotide content, Kidney / Oligonucleotide content, Liver: day 10. Here is the method:
(§1) Female C57BL6/J mice (5/group appr. 20 g at arrival) were injected subcutaneous (sc) with a single dose saline or 0.25 mg/kg unconjugated LNA-antisense oligonucleotide (compound F) or with 0.25 mg/kg or 0.1 mg/kg of GalNAc conjugated LNA antisense oligonucleotide (Compound C or E of the invention or reference compound G). Blood samples of 50 μl were collected pre-dosing at day minus 6, and post dosing at day 3 and 7. The animals were sacrificed at day 10 and total serum was collected as well as liver and kidney.
The oligonucleotide content in the liver and kidney was measured using ELISA (see for example Straarup et al 2010 Nucleic Acid Res Vol 38 pp 7100-7111), results are shown in Table 6.
For orientation: ELISA stands for enzyme-linked immunosorbent assay.

Data set [2] has as its system ApoB mRNA. In words: ApoB mRNA knockdown in liver and kidney by qPCR, single sc dose, sacrifice day 10 (Example 4). The following applies: for ApoB mRNA expression as % of saline, mRNA kidney: day 10, kidney; for ApoB mRNA expression as % of saline, mRNA liver: day 10, liver. The protocol:
as §1
(§2) ApoB mRNA knockdown was analyzed by qPCR. In brief, RNA was isolated from homogenized liver and kidney using MagnaPure RNA Isolation and purification system (catalog #03604721001 and #05467535001; Roche) according to the manufacturer's instructions. RT-QPCR was done using Taqman Fast Universal PCR Master Mix 2×(Applied Biosystems Cat #4364103) and Taqman gene expression assay (mApoB, Mn01545150_m1 and mGAPDH #4352339E) following the manufacturers protocol.

Data set [3] has as its system ApoB mRNA. As to the kind of experiment: ApoB mRNA knockdown in liver and kidney by qPCR, single iv dose 0.1 mg/kg, day 7 or 14 (Example 7). The following applies: 0.1 mg/kg single iv dose. The protocol: as §2
(§3) Female C57BL6/J mice (5/group appr. 20 g at arrival) were injected intravenous (iv) with a single dose saline or 0.1 mg/kg of GalNAc conjugated LNA antisense oligonucleotide (Compound J, K, L, B or C of the invention or reference compound M). Blood samples of 50 μl were collected pre-dosing at day minus 6, and post dosing at day 3, 7, 10 and 14. The animals were sacrificed at day 7 or 14 and total serum was collected as well as liver and kidney.
ApoB mRNA knock down was measured as described in example 4.

The nature of the next data set: ALT in serum (Example 7). The following applies: 0.1 mg/kg single iv dose. The protocol:
as §3
ALT (Alanine aminotransferase) was measured using ABX Pentra ALT CP reagent (A11A01627 Triolab, Brondby, Denmark. The results are shown in table 17.

The nature of data set [4]: Oligonucleotide content in liver and kidney by ELISA (Example 7). The following applies: 0.1 mg/kg single iv dose. The protocol: as §3
The oligonucleotide content in the liver and kidney was measured using ELISA (see for example Straarup et al 2010 Nucleic Acid Res Vol 38 pp 7100-7111), results are shown in Table 16.

In the case of “5′-GS^mCSaStStSgSgStSaStSTS^mCSAOcOa-3′ [E]”, in data set [1] (0.1 mg/kg single sc dose), the “Oligonucleotide content, Kidney” value is 0.094 μg/g tissue and the “Oligonucleotide content, Liver” value was 0.021 μg/g tissue. Besides, in data set [1] (0.25 mg/kg single sc dose), the “Oligonucleotide content, Kidney” value was 0.243 μg/g tissue and the “Oligonucleotide content, Liver” value is reported as 0.069 μg/g tissue. In addition, the “uptake in liver and kidney compared to the unconjugated oligonucleotide (compound F)” value in data set [1] (in words) is “enhanced uptake in the liver and reduced uptake in the kidney”. In the data set with ApoB mRNA [2] (0.1 mg/kg single sc dose), the “ApoB mRNA expression as % of saline, mRNA kidney” value is reported as 84.8 % of saline and the “ApoB mRNA expression as % of saline, mRNA liver” value was 60.5 % of saline. For the same substance, in the data set with ApoB mRNA [2] (0.25 mg/kg single sc dose), the “ApoB mRNA expression as % of saline, mRNA kidney” value was 51.0 % of saline and the “ApoB mRNA expression as % of saline, mRNA liver” value is recorded as 34.9 % of saline. Also, the “knock down of ApoB mRNA compared to the GalNAc2 cluster conjugated LNA oligonucleotide (compound G)” value in the data set with ApoB mRNA [2] (in words, high dose (0.25 mg/kg)) was “comparable”. Also, the “knock down of ApoB mRNA in the liver compared to unconjugated (naked) oligonucleotide (compound F)” value in the data set on ApoB mRNA [2] (in words, single sc dose, day 10) is reported as “improved knock down”.

With “5′-cOaOGS^mCSaStStSgSgStSaStSTS^mCSA-3′ [B]”, the “ApoB mRNA/mGAPDH expression as % of saline, Avg kidney” value in the data set on ApoB mRNA [3] (Day 7, kidney) is listed as 62.5 % of saline; in the data set with ApoB mRNA [3] (Day 14, kidney), 100.3 % of saline. Besides, the “ApoB mRNA/mGAPDH expression as % of saline, Avg liver” value in the data set on ApoB mRNA [3] (Day 7, liver) was 49.2 % of saline; with ApoB mRNA [3] (Day 14, liver), 112.8 % of saline. Moreover, the “ALT levels (U/L) in serum as % of saline” value is 177.3 % of saline in the data set “ALT in serum (Example 7)” (Day 7) and 108.5 % of saline in the data set “ALT in serum (Example 7)” (Day 14). Moreover, the “Oligonucleotide content, Avg kidney” value came to 0.353 µg/g in data set [4] (Day 7, kidney tissue) and 0.152 µg/g in data set [4] (Day 14, kidney tissue). Moreover, the “Oligonucleotide content, Avg liver” value in data set [4] (Day 7, liver tissue) was 0.161 µg/g; in data set [4] (Day 14, liver tissue) it was 0.066 µg/g.

These data come from patent publication US11248019B2, “Trityl-mono-GalNAc compounds and their use” (Hoffmann-La Roche Inc., priority 2016, dated 2022).
